The record followed here is the nanobody polyreactivity screen of Harvey et al. (2022).

A short description of this series: yeast display, Sf9 membrane polyspecificity reagent, FACS + sequencing; frameworks hold sequencing errors. The essentials: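 Galactose-induced (36–48 hours) yeast carrying a synthetic nanobody display library were exposed to 10% biotinylated, detergent-solubilized Sf9 membrane reagent at 4 °C for 1 hour. FACS followed streptavidin microbead enrichment, using low and high (top ~1%) gates for expression (anti-HA) and reagent binding (streptavidin). Colony PCR, MiSeq 2 × 250 sequencing and CDR-length filtering followed. Labels for polyreactivity reflect the gate of origin.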
For the sequence “QVQLVESGGGLVQAGGSLRLSCAASGSTFQTYVMGWYRQAPGKERELVAAITWSGGSTYYADSVKGRFTISRDNAKNTVYLQMNSLKPEDTAVYYCAARFPWRGGVKYSYYFQHDYWGQGTQVTVSS”, the “polyreactivity (PSR sort gate)” value is given as “high polyreactivity”.

“QVQLVESGGGLVQAGGSLRLSCAASGSTFQVYAKGWYRQAPGKERELVAAIDSGVSTYYADSVKGLFTFSRDNAKNTVYLQMNSLKPEDTAVYYWYGYDYWGQGTQVTVSS”: the “polyreactivity (PSR sort gate)” value is recorded as “low polyreactivity”.

In the case of “QVQLVESGGGLVQAGGSLRLSCAASGSTFQVYAMGWYRQAPGKERELVATIRRTGGSTYYADSVKGRFTISRDNAKNTVYLQMNSLKPEDTAVYYCAARLGYAGNRDGSWGQGTQVTVSS”, the “polyreactivity (PSR sort gate)” value was “high polyreactivity”.

On to “QVQLVESGGGLVQAGGSLRLSCAASGSTFQVYGLGWYRQAPGKERELVAAISRSGGRTYYADSVKGRFTISRDNAKNTVYLQMNSLKPEDTAVYYCAKTYQTTTSKSGYYYWGQGTQVTVSS”, for which the “polyreactivity (PSR sort gate)” value is “high polyreactivity”.

Turning to “QVQLVESGGGLVQAGGSLRLSCAASGSTFQVYTMGWYRQAPGKEREFVASISWSGSSTYYADSVKGRFTISRDNAKNTVYLQMNSLKPEDTAVYYCAAPDESYSVWRLDGLDYWGQGTQVTVSS”, the “polyreactivity (PSR sort gate)” value is on record as “high polyreactivity”.

Consider “QVQLVESGGGLVQAGGSLRLSCAASGSTFQYYAMGWYRQAPGKERELVAAISSGGSTYYADSVKGRFTISRDNAKNTVYLQMNSLKPEDTAVYYCAADFVNRQANRQFDYWGQGTQVTVSS”, for which the “polyreactivity (PSR sort gate)” value is on record as “high polyreactivity”.

Take “QVQLVESGGGLVQAGGSLRLSCAASGSTFQYYAMGWYRQEPGKEREFVASISGSGGSTNYADSVKGRFTISRDNAKNTVYLQMNSLKPEDTAVYYCAKEYVTEFQGYYYWGQGTQVTVSS”: the “polyreactivity (PSR sort gate)” value is listed as “low polyreactivity”.

With “QVQLVESGGGLVQAGGSLRLSCAASGSTFQYYDMGWYRQAPGKERELVASITGSGDSTYYADSVKGRFTISRDNAKNTVYLQMNSLKPEDTAVYYWGQGTQVTVSS”, the “polyreactivity (PSR sort gate)” value was “low polyreactivity”.

In the case of “QVQLVESGGGLVQAGGSLRLSCAASGSTFRANTMGWYRQAPGKERELVAAITSGGSTYYADSVKGRFTISRDNAKNTVYLQMNSLKPEDTAVYYCAADYTGDWADGPHSLREYDYWGQGTQVTVSS”, the “polyreactivity (PSR sort gate)” value is listed as “low polyreactivity”.

Turning to “QVQLVESGGGLVQAGGSLRLSCAASGSTFRDYAMGWYRQAPGKERELVASITSGSSTYADSVKGRFTISRDNAKNTVYLQMNCLKPEDTAVYYCNADGITSLPVPALDYWGQGTQVTVSS”, the “polyreactivity (PSR sort gate)” value is recorded as “low polyreactivity”.

Turning to “QVQLVESGGGLVQAGGSLRLSCAASGSTFREYTMGWYRQAPGKEWDLVAAITNSGGSTYYADSVKGRFTISRDNAKNTVYLQMNSLKPEDTAVYYCAAEVGIVDYDYWGQGNQVTVSS”, the “polyreactivity (PSR sort gate)” value is given as “low polyreactivity”.

In the case of “QVQLVESGGGLVQAGGSLRLSCAASGSTFRFNAMGWYRQAPGKEREFVAAIRFTGGSTYYADSVKGRFTISRDNAKNTVYLQMNSLKPEDTAVYYCNNADEYSTVEYDYWGQGSQVTVSS”, the “polyreactivity (PSR sort gate)” value is “low polyreactivity”.

As to “QVQLVESGGGLVQAGGSLRLSCAASGSTFRFYAMGWYRQAPGKERELVATISSSGGTTYYADSVKGRFTISRDNAKNTVYLQMNSLKPEDTAVYYCAARYYDTRWRYYYWGQGTQVTVSS”, the “polyreactivity (PSR sort gate)” value is on record as “high polyreactivity”.

“QVQLVESGGGLVQAGGSLRLSCAASGSTFRGNAMGWYRQAPGKERELVAAITRRGGSTYYADSVKGRFTISRDNAKNTVYLQMNRLKPEDTAVYYCAADWGNDWWGLFWGDYWGQGTQVTVSS”: the “polyreactivity (PSR sort gate)” value was “high polyreactivity”.

On to “QVQLVESGGGLVQAGGSLRLSCAASGSTFRGNAMGWYRQAPGKERELVASITGGGSTNYADSVKGRFTISRDNAKNTVYLQMNSLKPEDTAVYYCAADWGADFYWGQGTQVTVSS”, for which the “polyreactivity (PSR sort gate)” value is on record as “low polyreactivity”.

As for “QVQLVESGGGLVQAGGSLRLSCAASGSTFRGNAMGWYRQAPWKEREFVASISRRGGRTNYADSVKGRFTISRDNAKNTVYLQMNSLKPEDTAVYYCAAGRYRYKYRYFTAWYGYWGQGTQVTVSS”, the “polyreactivity (PSR sort gate)” value is listed as “high polyreactivity”.

For “QVQLVESGGGLVQAGGSLRLSCAASGSTFRGYAMGWYRQAPGKEREFVAAISRRGGTTYYADSVKGRFTISRDNAKNTVYLQMNSLKPEDTAVYYCNKVYYQHYLAFDYWGQGTQVNVSS”, the “polyreactivity (PSR sort gate)” value is reported as “high polyreactivity”.

“QVQLVESGGGLVQAGGSLRLSCAASGSTFRGYAMGWYRQAPGKERELVAAISRSGGSTYYADSVKGRFTISRDNAKNTVYLQMNSLKPEDTAVYYCNARSSKRSSRGYDYWGQGTQVTVSS”: the “polyreactivity (PSR sort gate)” value is given as “high polyreactivity”.

“QVQLVESGGGLVQAGGSLRLSCAASGSTFRGYAMGWYRQAPGKERELVAAITSDGSTNYADSVKGRFTISRDNAKNTVYLQMNSLKPEDTAVYYCNVKATRKWWDRRVYRYNYWGQGTQVTVSS”: the “polyreactivity (PSR sort gate)” value is “high polyreactivity”.

With “QVQLVESGGGLVQAGGSLRLSCAASGSTFRGYAMGWYRQAPGKERELVAASTWSGVTTYYADSVKGRFTISRDNAKNNVYLQMHSLKPEDTAVYYCATGTLYSDGAIYGYWGQGTQVTVSS”, the “polyreactivity (PSR sort gate)” value is “low polyreactivity”.

Take “QVQLVESGGGLVQAGGSLRLSCAASGSTFRGYAMGWYRQAPGKERELVAGITKRGGSTYYADSVKGRFTISRDNAKNTVYLQMNSLKPEDTAVYYCAAGKHRQAYEHDYWGQGTQVTVSS”: the “polyreactivity (PSR sort gate)” value is “high polyreactivity”.

As for “QVQLVESGGGLVQAGGSLRLSCAASGSTFRHYAMGLYRQAPGKERELVAAISSTGGSTYYADSVKGRFTISRDNAKNTVYLQMNSLKPEDTAVYYCAASPYGFRRNYYWGQGTQVTVSS”, the “polyreactivity (PSR sort gate)” value is given as “high polyreactivity”.

As to “QVQLVESGGGLVQAGGSLRLSCAASGSTFRHYAMGWYRQAPGKERELVAAITRRTVSTYYADSVKGRFTISRDNAKNSVYLQMNSLKPEHTAVYYCAADYWYSGYDYWGQGTQVTVSS”, the “polyreactivity (PSR sort gate)” value is “low polyreactivity”.

“QVQLVESGGGLVQAGGSLRLSCAASGSTFRINAMGWYRQAPGKERELVAAISRSGSITYYADSVKGRFTISRDNAKNTVYLQMNSLKPEDTAVYYCAAKSRKGGDYWGQGTQVTVSS”: the “polyreactivity (PSR sort gate)” value is “high polyreactivity”.

In the case of “QVQLVESGGGLVQAGGSLRLSCAASGSTFRIYAMGWYRQAPGKERELVARISWNGGRTYYADSVKGRFTISRDNAKNTVYLQMNSLKTEDTAVYYCNALVPPGYDYWGQGTQVTVSS”, the “polyreactivity (PSR sort gate)” value is given as “high polyreactivity”.

For the sequence “QVQLVESGGGLVQAGGSLRLSCAASGSTFRIYAMGWYRQAPGKERELVASISSGGRTYYADSVKGRFTISRDNAKNTVYLQMNSLKPEDTAVYYCNARHYYIWWRSPTRTAMNYWGQGTQVTVSS”, the “polyreactivity (PSR sort gate)” value is “high polyreactivity”.

In the case of “QVQLVESGGGLVQAGGSLRLSCAASGSTFRLYAMGGSRQAPGKERELVAAIRSGGNTNNADSVKGRFTISRDNAKHTVYLQMNSLKPEDTAVYYCNGFSGQLPVPNYDYWGQGTQVTVSS”, the “polyreactivity (PSR sort gate)” value is reported as “high polyreactivity”.

In the case of “QVQLVESGGGLVQAGGSLRLSCAASGSTFRLYAMGWYRQAPGEERELVASITFSDSITSYADSVKGRFTISRDNAKNTVYLQMNSLKPEDTAVYYCDKDTSYENVVYTFDYDYWGQGTQVTVSS”, the “polyreactivity (PSR sort gate)” value is “low polyreactivity”.

Consider “QVQLVESGGGLVQAGGSLRLSCAASGSTFRLYAMGWYRQAPGKEREFVAAISFRGGSTYYADSVKGRFTISRDNAKNTVYLQMNSLKPEDTAVYYCAADYWTSADPRNIIKYDYWGQGTQVTVSS”, for which the “polyreactivity (PSR sort gate)” value was “high polyreactivity”.

With “QVQLVESGGGLVQAGGSLRLSCAASGSTFRLYAMGWYRQAPGKERELVAAISYSGGSTYYADSVKGRFTISRDNAKNTVYLQMNSLKPEDTAVYYCNAVRRHGGYYDYGYWGQGTQVTVSS”, the “polyreactivity (PSR sort gate)” value is “high polyreactivity”.
